Measurements reported in patent publication US12338268B2, “Compositions and methods for treating protein aggregation-associated diseases” (The Board of Trustees of the Leland Stanford Junior …, priority 2019, dated 2025).
“Also recorded” adds a separate entry of the source.

Legend:
HttQ44-BodipyTMR = assay: Fluorescence quenching assay of HttQ44-BodipyTMR aggregation; assay type: biochemical; details: titrations of chaperones, 24-hour time period
Description: FIGS. 17A-17B show a fluorescence quenching assay as a reporter for early events in Htt aggregation.
A fluorescence quenching assay was used to monitor aggregation of HttQ44-BodipyTMR with titrations of various chaperones over a 24-hour time period.

[1] = molecular target: T1, mutant Huntingtin exon 1 (mHttQ51) (Homo sapiens, UniProt P42858, INS38QQQQQQQQQQQQQQQQQQQQQQQQQQQQQQQ); assay: In vitro filter trap aggregation assay of mutant Huntingtin exon 1; assay type: biochemical
T1 construct: mutant Huntingtin exon 1 containing a pathogenic stretch of 51 glutamines (mHttQ51); GST (N, cleaved yes); made in house; host or cells: E. coli Rosetta 2(DE3) pLysS
Description: (§1) Mutant Huntingtin and PolyQ51 aggregation reactions were performed at concentration 3 μM of mHttQ51, 0.044 Units/μl acTEV protease (Invitrogen, Carlsbad, CA, USA), and respective concentrations of Ovalbumin (Sigma) or purified NAC chaperone variants. Aggregation was conducted in TEV reaction buffer (Invitrogen) and incubated at 30° C. AtxQ78 was buffer exchanged into TEV reaction buffer using 7K MWCO Zeba Spin Desalting Columns (Thermo Fisher) to initiate aggregation. AtxQ78 aggregation reactions were performed at 30 μM of Ataxin-3 in reaction buffer (20 mM sodium phosphate pH 7.5, 25 mM NaCl, 6 mM MgCl2, 2 mM DTT, 5% (v/v) glycerol) and incubated at 37° C. Samples at varied time-points were then taken and combined in a 1:1 ratio with a 4% (w/v) SDS, 100 mM DTT solution, boiled for 5 min at 95° C., and stored at −20° C. Samples were then filtered through a 0.22 μm cellulose acetate membrane (Whatman) and washed with 0.1% (w/v) SDS. Membrane was probed using an S-tag antibody (Abcam) for mHttQ51 and PolyQ51, and with a His-tag antibody (Abcam) for AtxQ78.

Aβ40 [2] = molecular target: T2, Aβ40 (Homo sapiens, UniProt P05067); assay: Thioflavin T fluorescence assay of Aβ40 aggregation; assay type: biochemical; details: equimolar NAC variant and Aβ40 (32 μM FIG. 4C; 18 μM FIG. 12C), 37° C., 20 h
T2 construct: Aβ40 peptide was expressed and purified as described previously; made in house; host or cells: E. coli BL21 (DE3)
Description: Lyophilized Aβ40 was resuspended at 320 μM in 20 mM sodium phosphate pH 7.4, 0.2 mM EDTA, 0.01% (w/v) sodium azide and stored on ice. The NAC proteins were diluted to 100 μM in storage buffer (20 mM sodium phosphate pH 7.5, 25 mM NaCl, 6 mM MgCl2, 2 mM β-mercaptoethanol, 5% (v/v) glycerol) and buffer exchanged into 20 mM sodium phosphate pH 7.4, 0.2 mM EDTA, 0.01% (w/v) sodium azide, 1× complete mini protease inhibitor, EDTA free (Roche) by means of ZebaSpin 7 kDa MWCO spin columns (Thermo Scientific). Samples were prepared that contained equimolar concentrations of Aβ40 and NAC variants. Thioflavin T was added to a final concentration of 10 μM. The samples were transferred to a 96 well half-area clear bottom microplate (Corning GmbH, Wiesbaden, Germany), with 95 μL of sample in each well. The fluorescence (excitation: 440 nm, emission: 480 nm) was measured using a BMG Omega plate reader (BMG Labtech) incubating samples at 37° C., quiescently.

PolyQ51 = assay: In vitro filter trap aggregation assay of PolyQ51; assay type: biochemical; details: 5× molar excess, SDS-insoluble aggregates
Description: as §1

[3] = molecular target: GdmCl-denatured firefly luciferase (Photinus pyralis, UniProt P08659); assay: Luciferase refolding assay; assay type: biochemical
[4] = molecular target: T3, full-length Ataxin-3 (AtxQ78) (Homo sapiens, UniProt P54252, INS305QQQQQQQQQQQQQQQQQQQQQQQQQQQQQQQQQQQQQQQQQQQQQQQQQQQQQQQQQQQQQQQQ); assay: Filter trap aggregation assay of AtxQ78; assay type: biochemical; details: equimolar (1×) NAC, 37° C.
T3 construct: full-length Ataxin-3 harboring a stretch of 78 glutamines (AtxQ78); made in house
Description: as §1

AtxQ78 = molecular target: T4, AtxQ78 (Homo sapiens, UniProt P54252, INS305QQQQQQQQQQQQQQQQQQQQQQQQQQQQQQQQQQQQQQQQQQQQQQQQQQQQQQQQQQQQQQQQ); assay: Chemical crosslinking (BS3) and mass spectrometry of NAC-AtxQ78 complexes; assay type: binding; details: NAC and AtxQ78 1:1, BS3 crosslinker, LC-MS
T4 construct: full-length Ataxin-3 harboring a stretch of 78 glutamines (AtxQ78); made in house
Description: For crosslinking AtxQ78 was buffer exchanged into 10 mM sodium phosphate (pH 7.2) and added to NAC at a 1:1 ratio (20 μM NAC+20 μM AtxQ78). A 1:1 mixture of BS^3-d^0 and BS^3-d^4 was added to the proteins at 20× and 50× molar excess and the reaction allowed to proceed at room temperature for 1 hour before quenching with the addition of 50 mM Tris-Cl (pH 7.5). Samples were diluted with 2× loading buffer and separated on Tris-tricine gels followed by staining with InstantBlue (Expedeon).
Gel pieces containing the crosslinked complexes were washed with 25 mM ammonium bicarbonate (pH 7.8) for 1 h with shaking. The solution was removed and the pieces destained three times with 25 mM ammonium bicarbonate in 60% acetonitrile. Gel pieces were dehydrated with 100% acetonitrile for 10 min and left to air-dry in a laminar flowhood for 1 h. Rehydration of the gel pieces was achieved by adding 0.1 mg/ml trypsin solution and incubating the samples on ice for 30 min. Excess trypsin was removed and the samples were incubated at 37° C. and 1000 rpm overnight. Peptides were extracted from the gel using 3 washes with 60% acetonitrile/5% formic acid. The extracts were pooled and concentrated using a SpeedVac before being analyzed using a nanoACQUITY LC-system coupled to a Synapt HDMS G2Si mass spectrometer. […]

Aβ40 [5] = molecular target: T2, Aβ40; assay: Transmission electron microscopy of Aβ40 reaction endpoint; assay type: biochemical; details: reaction endpoint at 20 h, equimolar NAC
Description: After 20 h, samples were taken from the Thioflavin T plate and fixed on carbon coated copper grids, made in house. The samples were negative stained with 2% (w/v) uranyl acetate. The samples were imaged on a JEOL 1400 TEM at the Astbury structural biology laboratory, University of Leeds.

T1 sequence (P42858 with tags, fused parts or gaps with the stated changes limits assumed): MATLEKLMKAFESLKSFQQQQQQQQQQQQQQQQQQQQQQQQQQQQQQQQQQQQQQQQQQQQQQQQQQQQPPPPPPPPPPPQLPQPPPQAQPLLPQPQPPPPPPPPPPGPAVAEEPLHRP
Sequence of GdmCl-denatured firefly luciferase (P08659 whole entry): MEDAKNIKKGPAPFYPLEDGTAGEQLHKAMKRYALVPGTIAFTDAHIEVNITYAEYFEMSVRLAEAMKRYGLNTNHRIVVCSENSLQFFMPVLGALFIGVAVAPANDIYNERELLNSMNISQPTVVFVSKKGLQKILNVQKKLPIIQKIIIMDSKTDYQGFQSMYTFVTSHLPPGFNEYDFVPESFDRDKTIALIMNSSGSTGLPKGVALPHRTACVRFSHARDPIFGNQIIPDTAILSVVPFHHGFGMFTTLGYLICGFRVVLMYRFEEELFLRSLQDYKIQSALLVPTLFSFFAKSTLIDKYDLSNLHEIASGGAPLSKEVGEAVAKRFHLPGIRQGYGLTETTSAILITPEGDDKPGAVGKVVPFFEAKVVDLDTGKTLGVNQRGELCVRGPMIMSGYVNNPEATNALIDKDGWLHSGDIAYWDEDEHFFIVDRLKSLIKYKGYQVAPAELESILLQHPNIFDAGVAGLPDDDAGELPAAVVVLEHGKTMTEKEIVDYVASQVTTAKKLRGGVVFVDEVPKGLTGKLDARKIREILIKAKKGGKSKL
Sequence of HttQ44-BodipyTMR (P42858 with tags, fused parts or gaps with the stated changes limits assumed): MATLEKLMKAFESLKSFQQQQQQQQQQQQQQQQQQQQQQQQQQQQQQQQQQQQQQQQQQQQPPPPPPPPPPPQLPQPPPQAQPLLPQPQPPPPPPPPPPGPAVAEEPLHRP
T3 sequence (P54252 with tags, fused parts or gaps with the stated changes): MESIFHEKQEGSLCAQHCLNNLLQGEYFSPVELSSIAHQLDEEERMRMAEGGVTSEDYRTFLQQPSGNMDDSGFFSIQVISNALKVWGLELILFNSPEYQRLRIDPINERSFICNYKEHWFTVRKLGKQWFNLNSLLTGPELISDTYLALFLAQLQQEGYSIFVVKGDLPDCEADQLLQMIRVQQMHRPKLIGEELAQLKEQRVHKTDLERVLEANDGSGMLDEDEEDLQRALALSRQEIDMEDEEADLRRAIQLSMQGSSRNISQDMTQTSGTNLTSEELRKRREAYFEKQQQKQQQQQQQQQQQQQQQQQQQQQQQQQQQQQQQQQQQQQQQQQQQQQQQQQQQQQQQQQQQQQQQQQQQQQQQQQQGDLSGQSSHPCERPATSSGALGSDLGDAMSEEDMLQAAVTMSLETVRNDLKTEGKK
T4 sequence (P54252 with tags, fused parts or gaps with the stated changes): as above

Molecule	Htt aggregation over time (fluorescence quenching) (HttQ44-BodipyTMR)	HttQ51 aggregation, titration ([1]; ApiCCT1-bNAC from 15 μM to 0.03 μM, Htt 3 μM, filter trap)	polyQ aggregation of huntingtin exon1 ([1]; system with purified components, listed as fused protein)	Aβ40 aggregation (ThT fluorescence) (Aβ40 [2])	accumulation of PolyQ51 aggregates (PolyQ51)	luciferase refolding ([3]; NAC added to the Hsp70/Hsp40 system (3.2 μM/0.8 μM), no preincubation)	luciferase refolding ([3]; NAC alone, absence of Hsp70/Hsp40, luciferase 0.02 μM, equimolar NAC)	mHttQ51 aggregation ([1]; 5× molar excess, 3 μM mHttQ51, filter trap, SDS-insoluble aggregates)	AtxQ78 aggregation [4]	identified intermolecular crosslinks to the C-terminal region of AtxQ78 close to the expanded PolyQ stretch (AtxQ78)	Aβ40 fibril formation (electron microscopy) (Aβ40 [5])
ApiCCT1-bNAC: fusion protein comprising the apical domain of CCT1 fused with the bNAC N-terminal sequence at its C-terminus (protein) MGVPGYALNCTVASQAMPKRIAGGNVKIACLDLNLQKARMAMGVQINIDDPEQLEQIRKREAGIVLERVKKIIDAGAQVVLTTKGIDDLCLKEFVEAKIMGVRRCKKEDLRRIARATGATLVSSMSNLEGEETFESSYLGLCDEVVQAKFSDDECILIKGTSKAAAAALEGGSGGSMKETIMNQEKLAKLQAQVRIGGKGTARRKKKVVHRTAT	better and more stably suppresses Htt aggregation overtime compared to the ApiCCT1 and bNAC N-terminal domain individually	can suppress HttQ51 aggregation at sub-molar concentrations	works even more potently to inhibit huntingtin exon1 aggregation; also recorded: can suppress aggregation even at sub-molar ratios	–	–	–	–	–	–	–	–
human NAC: purified recombinant human nascent polypeptide-associated complex (αNAC and βNAC 1:1) (protein) chain 1: MTGSTETRQKEVKEPQVDVSDDSDNEAVEQELTEEQRRVAEAAGLGDHIDKQAKQSRSEKKARKLFSKLGLKQVTGVSRVCIRKSKNILFVINKPDVFKSPGSDTYIIFGEAKIEDLTQHAQMSAIENLKPTREAPQLKTVEEDENEDVEEDSTGIEEKDIELVISQANTTRNKAIRALKEADNDIVNAIMSLTM chain 2: MMDSKAIAERIKKLQAQQEHVRIGGKGTPRRKKKVIHKTAAADDKKLQSNLKKLSVTNIPGIEEVNMIKDDGTVIHFNNPKVQTSVPANTFSVTGSADNKQITEMLPGILNQLGPESLTHLKKLANNVTKLGPDGKGEDEDVPELVGDFDAASKNETKADEQ	–	–	–	completely suppressed Aβ40 aggregation	strongly delayed the accumulation of PolyQ51 aggregates	did not enhance luciferase refolding	had no effect on luciferase refolding	effectively suppressed aggregation	delayed the aggregation of AtxQ78	11 out of 18	completely suppressed Aβ40 aggregation and fibril formation
